Test results from the supplement of paper PMC5998384.

Assays:
HeLa Kyoto [1] = experiment: solubility change mitosis vs G1/S (difference of NP-40 vs SDS log2 ratios) (log2 ratio difference); higher = more soluble in mitosis
HeLa Kyoto [2] = experiment: solubility in G1/S (NP-40 vs SDS abundance) (log2 ratio); higher = more soluble; conditions: cell cycle stage: G1/S
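For solubility change mitosis vs G1/S (difference of NP-40 vs SDS log2 ratios) in this document: synchronized HeLa Kyoto cells (double thymidine block for G1/S, nocodazole release for mitosis), protein amounts in NP-40 versus SDS lysates quantified by mass spectrometry, three biological replicates.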
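For solubility in G1/S (NP-40 vs SDS abundance) in this document: HeLa Kyoto cells arrested at G1/S by double thymidine block, proteins quantified by TMT10plex mass spectrometry in mild NP-40 versus SDS extracts, three biological replicates.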

Chain of MAP4K5 (chain, as listed by the source): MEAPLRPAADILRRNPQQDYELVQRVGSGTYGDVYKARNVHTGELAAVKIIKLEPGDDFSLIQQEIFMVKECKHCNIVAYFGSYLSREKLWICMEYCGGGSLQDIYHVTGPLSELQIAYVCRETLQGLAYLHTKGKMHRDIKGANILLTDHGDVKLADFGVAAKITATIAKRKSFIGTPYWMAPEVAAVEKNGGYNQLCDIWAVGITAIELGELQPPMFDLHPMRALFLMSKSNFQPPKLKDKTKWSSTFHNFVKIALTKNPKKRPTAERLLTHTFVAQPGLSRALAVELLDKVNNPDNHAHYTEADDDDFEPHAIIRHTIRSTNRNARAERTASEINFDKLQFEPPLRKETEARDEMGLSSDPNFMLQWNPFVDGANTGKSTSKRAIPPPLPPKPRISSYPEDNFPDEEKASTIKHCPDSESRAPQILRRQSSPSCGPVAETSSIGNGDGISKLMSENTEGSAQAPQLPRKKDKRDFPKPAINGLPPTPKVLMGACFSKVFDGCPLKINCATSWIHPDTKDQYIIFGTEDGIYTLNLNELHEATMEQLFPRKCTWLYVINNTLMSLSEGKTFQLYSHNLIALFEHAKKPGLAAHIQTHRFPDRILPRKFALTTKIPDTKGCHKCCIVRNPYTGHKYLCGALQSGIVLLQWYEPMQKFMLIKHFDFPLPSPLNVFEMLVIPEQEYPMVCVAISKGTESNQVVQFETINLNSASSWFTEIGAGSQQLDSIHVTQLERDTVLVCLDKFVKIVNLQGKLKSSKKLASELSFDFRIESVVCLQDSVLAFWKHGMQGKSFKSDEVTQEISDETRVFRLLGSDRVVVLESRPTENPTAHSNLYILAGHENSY

Substance | solubility change mitosis (log2) (HeLa Kyoto [1]) | solubility in G1/S (log2) (HeLa Kyoto [2])
MAMASPAIGQRPYPLLLDPEPPRYLQSLSGPELPPPPPDRSSRLCVPAPLSTAPGAREGRSARRAARGNLEPPPRASRPARPLRPGLQQRLRRRPGAPRPRDVRSIFEQPQDPRVPAERGEGHCFAELVLPGGPGWCDLCGREVLRQALRCTNCKFTCHPECRSLIQLDCSQQEGLSRDRPSPESTLTVTFSQNVCKPVEETQRPPTLQEIKQKIDSYNTREKNCLGMKLSEDGTYTGFIKVHLKLRRPVTVPAGIRPQSIYDAIKEVNLAATTDKRTSFYLPLDAIKQLHISSTTTVSEVIQGLLKKFMVVDNPQKFALFKRIHKDGQVLFQKLSIADRPLYLRLLAGPDTEVLSFVLKENETGEVEWDAFSIPELQNFLTILEKEEQDKIQQVQKKYDKFRQKLEEALRESQGKPG [RASSF5] | -0.108 | 0.328
MAP4K5 | -0.0819 | 0.172
MAPEENAGTELLLQSFERRFLAARTLRSFPWQSLEAKLRDSSDSELLRDILHKTVKHPVCVKHPPSVKYARCFLSELIKKHEAVHTEPLDELYEALAETLMAKESTQGHRSYLLPSGGSVTLSESTAIISYGTTGLVTWDAALYLAEWAIENPAVFTNRTVLELGSGAGLTGLAICKMCRPRAYIFSDCHSRVLEQLRGNVLLNGLSLEADITAKLDSPRVTVAQLDWDVATVHQLSAFQPDVVIAADVLYCPEAIMSLVGVLRRLAACREHQRAPEVYVAFTVRNPETCQLFTTELGRAGIRWEVEPRHEQKLFPYEEHLEMAMLNLTL [EEF2KMT] | -0.00202 | 0.0707
MAPGEVTITVRLIRSFEHRNFKPVVYHGVNLDQTVKEFIVFLKQDIPLRTNLPPPFRNYKYDALKIIHQAHKSKTNELVLSLEDDERLLLKEDSTLKAAGIASETEIAFFCEEDYKNYKANPISSW [C2ORF76] | 0.0795 | -0.239
MAPPAGGAAAAASDLGSAAVLLAVHAAVRPLGAGPDAEAQLRRLQLSADPERPGRFRLELLGAGPGAVNLEWPLESVSYTIRGPTQHELQPPPGGPGTLSLHFLNPQEAQRWAVLVRGATVEGQNGSKSNSPPALGPEACPVSLPSPPEASTLKGPPPEADLPRSPGNLTEREELAGSLARAIAGGDEKGAAQVAAVLAQHRVALSVQLQEACFPPGPIRLQVTLEDAASAASAASSAHVALQVHPHCTVAALQEQVFSELGFPPAVQRWVIGRCLCVPERSLASYGVRQDGDPAFLYLLSAPREAPATGPSPQHPQKMDGELGRLFPPSLGLPPGPQPAASSLPSPLQPSWSCPSCTFINAPDRPGCEMCSTQRPCTWDPLAAAST [SHARPIN] | -0.0725 | 0.196
MAPRKGSSRVAKTNSLRRRKLASFLKDFDREVEIRIKQIESDRQNLLKEVDNLYNIEILRLPKALREMNWLDYFALGGNKQALEEAATADLDITEINKLTAEAIQTPLKSAKTRKVIQVDEMIVEEEEEEENERKNLQTARVKRCPPSKKRTQSIQGKGKGKRSSRANTVTPAVGRLEVSMVKPTPGLTPRFDSRVFKTPGLRTPAAGERIYNISGNGSPLADSKEIFLTVPVGGGESLRLLASDLQRHSIAQLDPEALGNIKKLSNRLAQICSSIRTHK [CDCA8] | 0.0931 | -1.64
MAQAHRTPQPRAAPSQPRVFKLVLLGSGSVGKSSLALRYVKNDFKSILPTVGCAFFTKVVDVGATSLKLEIWDTAGQEKYHSVCHLYFRGANAALLVYDITRKDSFLKAQQWLKDLEEELHPGEVLVMLVGNKTDLSQEREVTFQEGKEFADSQKLLFMETSAKLNHQVSEVFNTVAQELLQRSDEEGQALRGDAAVALNKGPARQAKCCAH [RAB17] | -0.134 | 0.138
MAQASLLACEGLAGVSLVPTAASKKMMLSQIASKQAENGERAGSPDVLRCSSQGHRKDSDKSRSRKDDDSLSEASHSKKTVKKVVVVEQNGSFQVKIPKNFVCEHCFGAFRSSYHLKRHILIHTGEKPFECDICDMRFIQKYHLERHKRVHSGEKPYQCERCHQCFSRTDRLLRHKRMCQGCQSKTSDGQFSL [ZNF740] | -0.0892 | -0.111
MAQGLIEVERKFLPGPGTEERLQELGGTLEYRVTFRDTYYDTPELSLMQADHWLRRREDSGWELKCPGAAGVLGPHTEYKELTAEPTIVAQLCKVLRADGLGAGDVAAVLGPLGLQEVASFVTKRSAWKLVLLGADEEEPQLRVDLDTADFGYAVGEVEALVHEEAEVPTALEKIHRLSSMLGVPAQETAPAKLIVYLQRFRPQDYQRLLEVNSSRERPQETEDPDHCLG [THTPA] | 0.0566 | 0.0904
MAQGSHQIDFQVLHDLRQKFPEVPEVVVSRCMLQNNNNLDACCAVLSQESTRYLYGEGDLNFSDDSGISGLRNHMTSLNLDLQSQNIYHHGREGSRMNGSRTLTHSISDGQLQGGQSNSELFQQEPQTAPAQVPQGFNVFGMSSSSGASNSAPHLGFHLGSKGTSSLSQQTPRFNPIMVTLAPNIQTGRNTPTSLHIHGVPPPVLNSPQGNSIYIRPYITTPGGTTRQTQQHSGWVSQFNPMNPQQVYQPSQPGPWTTCPASNPLSHTSSQQPNQQGHQTSHVYMPISSPTTSQPPTIHSSGSSQSSAHSQYNIQNISTGPRKNQIEIKLEPPQRNNSSKLRSSGPRTSSTSSSVNSQTLNRNQPTVYIAASPPNTDELMSRSQPKVYISANAATGDEQVMRNQPTLFISTNSGASAASRNMSGQVSMGPAFIHHHPPKSRAIGNNSATSPRVVVTQPNTKYTFKITVSPNKPPAVSPGVVSPTFELTNLLNHPDHYVETENIQHLTDPTLAHVDRISETRKLSMGSDDAAYTQALLVHQKARMERLQRELEIQKKKLDKLKSEVNEMENNLTRRRLKRSNSISQIPSLEEMQQLRSCNRQLQIDIDCLTKEIDLFQARGPHFNPSAIHNFYDNIGFVGPVPPKPKDQRSIIKTPKTQDTEDDEGAQWNCTACTFLNHPALIRCEQCEMPRHF [TAB2] | -0.0447 | 0.348
MAQKENSYPWPYGRQTAPSGLSTLPQRVLRKEPVTPSALVLMSRSNVQPTAAPGQKVMENSSGTPDILTRHFTIDDFEIGRPLGKGKFGNVYLAREKKSHFIVALKVLFKSQIEKEGVEHQLRREIEIQAHLHHPNILRLYNYFYDRRRIYLILEYAPRGELYKELQKSCTFDEQRTATIMEELADALMYCHGKKVIHRDIKPENLLLGLKGELKIADFGWSVHAPSLRRKTMCGTLDYLPPEMIEGRMHNEKVDLWCIGVLCYELLVGNPPFESASHNETYRRIVKVDLKFPASVPMGAQDLISKLLRHNPSERLPLAQVSAHPWVRANSRRVLPPSALQSVA [AURKB] | -0.11 | -1.2
MAQRYDDLPHYGGMDGVGIPSTMYGDPHAARSMQPVHHLNHGPPLHSHQYPHTAHTNAMAPSMGSSVNDALKRDKDAIYGHPLFPLLALIFEKCELATCTPREPGVAGGDVCSSESFNEDIAVFAKQIRAEKPLFSSNPELDNLMIQAIQVLRFHLLELEKVHELCDNFCHRYISCLKGKMPIDLVIDDREGGSKSDSEDITRSANLTDQPSWNRDHDDTASTRSGGTPGPSSGGHTSHSGDNSSEQGDGLDNSVASPSTGDDDDPDKDKKRHKKRGIFPKVATNIMRAWLFQHLTHPYPSEEQKKQLAQDTGLTILQVNNWFINARRRIVQPMIDQSNRAVSQGTPYNPDGQPMGGFVMDGQQHMGIRAPGPMSGMGMNMGMEGQWHYM [MEIS1] | -0.208 | 0.363
MARGGDTGCTGPSETSASGAAAIALPGLEGPATDAQCQTLPLTVLKSRSPSPRSLPPALSCPPPQPAMLEHLSSLPTQMDYKGQKLAEQMFQGIILFSAIVGFIYGYVAEQFGWTVYIVMAGFAFSCLLTLPPWPIYRRHPLKWLPVQESSTDDKKPGERKIKRHAKNN [SPCS1] | -0.00723 | -0.248
